Target: fetuin
Test: ELISA on coated fetuin, OS-PT at 20 µg/ml, detection with anti-PT serum

Question: Which absorbance at A405 nm does the source give for “OS-PT conjugate: B. pertussis 186 LOS-derived oligosaccharide coupled to pertussis toxin by reductive amination (oligosaccharide content not specified at the place) (from UniProt P04977 35-269; P04978 28-226; P04979 29-227; P0A3R5 43-152; P04981 35-133)” here?
Answer: 0.117 A405 nm
